Measured values taken from US20240254204A1 (NATIONAL UNIVERSITY OF SINGAPORE, published 2024).
Positions count from the first letter of the chain named. Values joined by “and” are separate entries in the source; they are usually repeats but may differ in a detail not shown here. Identical values can stand only once.

How the values were obtained:
Assay in all cases: cell-based or functional assay
WIV-1 full-length spike = WIV-1 full-length spike (SC1r-CoV WIV-1)
[1] = target: SARS-COV-2 Wuhan-hu-1 (ancestral) full-length spike (SARS-CoV-2)
[2] = target: SARS-COV-1 full-length spike (SARS-CoV)

Measured: pseudovirus neutralization NT50

B1: Antibody 11 (SS6V11-E7) (antibody, V domains shown)
VH: QVQLQESGPGLVKPSETLSLTCTVSGGFIGPHYWSWVRQPPGKGLEWIGYIYISGSTNYNPSLKSRLTISVDMSKSQFSLTLSSATAADTAVYYCARGGGYLETGPFEYWGQGTLVTVSS
VL: DIVMTQSPLSLPVTPGEPASISCRSSQSLLQNNGYNYLAWYLQKPGQSPQLLIYLSSTRASGVPDRFSGSGSGTDFTLKISRVEAEDVGVYYCMQSLQIPGTFGQGTRLEIK
< 10 ng/ml and < 0.067 nM: all assays above

B2: Antibody 13 (SS6V13-F1) (antibody, V domains shown)
VH: QVQLQESGPGLVKPSETLSLTCSVSGVSILGSYWGWIRQPPGTGLQWIGYIYFSENTNYNPSLQSRVTMSLDTSKNLLSLKLSSVTAADTAVYYCARGGGYLETGPFDSWGQGTLVTVSS
VL: B1 VL with S28G, L30V, N32S, S56G, T58N, S96G, I99T
< 10 ng/ml and < 0.067 nM: all assays above

B3: Antibody 20 (SS6V20-F5) (antibody, V domains shown)
VH: QVQLQESGPGLVKPSETLSLTCTVSGGSIIGYYWSWIRQPPGKGLEWIGYIYFSANTNYNPSLKSRVTMSVDMSKKQFSLKLRSVTAADTAVYYCARGGGYLETGPLDFWGQGILVTVSS
VL: B1 VL with L30M, N32L, K44R, S56G, S81T, S96G
< 10 ng/ml and < 0.067 nM: all assays above
